B1: Pistol ribozyme (parent)
chain: GGGUCGUUGUUCCAUAAUCGCGUGGAUAUGGCACGCAAGUUUCUACCGGGCACCGUAAAUGUCCGACUGGAGCCGUUCGGGCGGCUAUAAACAGACCUCAGGCCCGAAGCGUGGCGGCACCUGCCGCCGGUGGUAAAAAAGAUCGGAAGAGCACACGUCU

Variants of: B1
Experiment: aptazyme ON/OFF ratio, guanine; higher = stronger switching; co-transcriptional cleavage with and without guanine

Row | Variant | aptazyme ON/OFF ratio
1 | U7G U8G U11G C13U | 1.28
2 | U7G U8G U11G C13A | 1.21
3 | U7G U8G U11G C13G | 1.39
4 | U7G U10A C12U | 1.16
5 | U7G U10A C12G | 1.22
6 | U7G U10A C12A | 1.21
7 | U7G U8G G9U U11C C12A | 1.8
8 | U7G U8G G9U U11C C12G | 1.43
9 | U7G U8G G9U U11C C12U | 1.65
10 | U7G U8G G9U U11G C12A C13A | 1.1
11 | U7G U8G G9U U11G C12A C13U | 1.16
12 | U7G U8G G9U U11G C12A C13G | 1.12
13 | U7G U8G U10G C12U C13U | 1.32
14 | U7G U8G U10G C12U C13G | 1.04
15 | U7G U8G U10G C12U C13A | 1
16 | U7G U8G G9U U11A C12G C13A | 1.15
17 | U7G U8G G9U U11A C12G C13U | 1.16
18 | U7G U8G G9U U11A C12G C13G | 1.06
19 | U7G U8G G9U U10G U11G C12U C13U | 1.18
20 | U7G U8G G9U U10G U11G C12U C13A | 1.11
21 | U7G U8G G9U U10G U11G C12U C13G | 1.12

Row | Variant | aptazyme ON/OFF ratio
22 | U7G U8G U11A C13U | 1.24
23 | U7G U8G U11A C13A | 1.5
24 | U7G U8G U11A C13G | 1.24
25 | U7G U8G U10C U11A C13G | 1.38
26 | U7G U8G U10C U11A C13U | 1.47
27 | U7G U8G U10C U11A C13A | 1.38
28 | U7G U8G U10G C12U | 1.54
29 | U7G U8G U10G C12G | 1.3
30 | U7G U8G U10G C12A | 1.31
31 | U7G U8G U10C U11G C12A C13G | 1.16
32 | U7G U8G U10C U11G C12A C13A | 1.15
33 | U7G U8G U10C U11G C12A C13U | 1.22
34 | U7G U8G U10G U11A C12A C13G | 1.31
35 | U7G U8G U10G U11A C12A C13U | 1.23
36 | U7G U8G U10G U11A C12A C13A | 1.17
37 | U7G U8G U10A U11G C12G | 1.2
38 | U7G U8G U10A U11G C12A | 1.16
39 | U7G U8G U10A U11G C12U | 1.38
40 | U7G U8G U11C C12A | 1.31
41 | U7G U8G U11C C12U | 1.37
42 | U7G U8G U11C C12G | 1.15

Row | Variant | aptazyme ON/OFF ratio
43 | U7G U8G U10A C12U | 1.45
44 | U7G U8G U10A C12G | 1.29
45 | U7G U8G U10A C12A | 1.28
46 | U7G U8G U10G C12A C13G | 1.19
47 | U7G U8G U10G C12A C13A | 1.51
48 | U7G U8G U10G C12A C13U | 1.4
49 | U7G U8G U10C C12A C13G | 1.27
50 | U7G U8G U10C C12A C13U | 1.28
51 | U7G U8G U10C C12A C13A | 1.45
52 | U7G U8G G9U U11C C13A | 1.4
53 | U7G U8G G9U U11C C13G | 1.1
54 | U7G U8G G9U U11C C13U | 1.41
55 | U7G U8G U10A U11C C12U C13A | 1.42
56 | U7G U8G U10A U11C C12U C13U | 1.5
57 | U7G U8G U10A U11C C12U C13G | 1.25
58 | U7G U8G U10G C13U | 1.39
59 | U7G U8G U10G C13G | 1.47
60 | U7G U8G U10G C13A | 1.45
61 | U7G U8G U10A U11G C12A C13G | 1.15
62 | U7G U8G U10A U11G C12A C13A | 1.05
63 | U7G U8G U10A U11G C12A C13U | 1.37

Row | Variant | aptazyme ON/OFF ratio
64 | U7G U8G U11A C12A C13U | 1.15
65 | U7G U8G U11A C12A C13A | 1.34
66 | U7G U8G U11A C12A C13G | 1.02
67 | U7G U8G U10G U11A C12U C13G | 1.17
68 | U7G U8G U10G U11A C12U C13A | 1.33
69 | U7G U8G U10G U11A C12U C13U | 1.17
70 | U7G U8G G9U U11A C12U C13A | 1.33
71 | U7G U8G G9U U11A C12U C13G | 1.28
72 | U7G U8G G9U U11A C12U C13U | 1.23
73 | U7G U10A C12G C13A | 1.15
74 | U7G U10A C12G C13G | 1.2
75 | U7G U10A C12G C13U | 1.17
76 | U7G U8G U10C U11C C12G | 1.18
77 | U7G U8G U10C U11C C12U | 1.35
78 | U7G U8G U10C U11C C12A | 1.41
79 | U7G U8G U10G U11G | 1.39
80 | U7G U8G U10G U11A | 1.66
81 | U7G U8G U10G U11C | 2.08
82 | U7G U8G U10C U11C C12A C13G | 1.23
83 | U7G U8G U10C U11C C12A C13U | 1.22

Source: the RNAGym collection of RNA variant scans (doi:10.1021/acssynbio.7b00057)
